According to PMC4828686:
Values joined by “and” are separate entries in the source; they are usually repeats but may differ in a detail not shown here. Equal entries are not always repeated.

What was measured:
[1] = molecular target: Actin, purified (rabbit skeletal muscle; Cytoskeleton, Inc.) (rabbit) (UniProt P68135); experiment: co-sedimentation
[2] = molecular target: Actin, purified (rabbit skeletal muscle; Cytoskeleton, Inc.) (rabbit) (UniProt P68135); experiment: SPR
[3] = molecular target: Actin, purified (rabbit skeletal muscle; Cytoskeleton, Inc.) (rabbit) (UniProt P68135); experiment: ELISA
[4] = molecular target: GST-fused full-length kindlin-2 LK47/AA mutant (GST-K2LK47/AA) (human) (UniProt Q96AC1); experiment: pull-down
[5] = molecular target: Actin mutant that cannot polymerize (G-actin mimetic; Joel et al., 2004); experiment: SPR

α-actinin (natural protein)
percent of the added protein in the actin pellet [1]: 52%

GST-fused full-length kindlin-2 LK47/AA mutant (GST-K2LK47/AA) (from UniProt Q96AC1 1-680) (natural protein)
Kd [2]: 982 nM and 1580 nM
fold difference of the relative Kd against WT K2 [3]: 3 fold and 5 fold

Full-length kindlin-2 (K2), GST tag removed by Factor Xa (from UniProt Q96AC1 1-680) (natural protein)
percent of the added protein in the actin pellet [1]: 36% and 30% to 54% (2×)

Actin, purified (rabbit skeletal muscle; Cytoskeleton, Inc.) (from UniProt P68135 1-377) (natural protein)
mean percent less actin pulled down than by WT K2 [4]: 75%

GST-fused full-length kindlin-2 (GST-K2) (from UniProt Q96AC1 1-680) (natural protein)
Kd [5]: 124 nM
Kd [2]: 136 nM and 190 nM
